Data from PMC9765892, “Molecular identification and functional characterization of two glycosyltransferases genes from Fallopia multiflora” (Frontiers in Plant Science, 2022).

Columns and labels:
FmUGT1 = molecular target: T1, FmUGT1 (Pleuropterus multiflorus, UniProt A0A9E7V1Q5); experiment: HPLC glycosylation assay; Lineweaver-Burk plot; format: biochemical; settings: 0.8 mM UDP-glucose; 0.05 M Tris-HCl; 5-480 μM substrate; pH and temperature of kinetics not stated; substrate assigned from methods
T1 construct: gene UGT; full length, 533 residues (ORF 1602 bp); pET-32a (BamH I) in E. coli Transetta (DE3), Ni-NTA purified
Excerpt: HPLC glycosylation assay; Lineweaver-Burk plot on FmUGT1 | using THSG and emodin as the substrate for FmUGT1 and FmUGT2, respectively

[1] = substrate: Cc1cc(O)c2c(c1)C(=O)c1cc(O)cc(O)c1C2=O; experiment: HPLC glycosylation assay; Lineweaver-Burk plot; format: biochemical, Pleuropterus multiflorus; settings: 0.8 mM UDP-glucose; 0.05 M Tris-HCl; 5-480 μM substrate; pH and temperature of kinetics not stated; substrate assigned from methods
Excerpt: HPLC glycosylation assay; Lineweaver-Burk plot on FmUGT2 | using THSG and emodin as the substrate for FmUGT1 and FmUGT2, respectively

T1 sequence (A0A9E7V1Q5 entry or part of it): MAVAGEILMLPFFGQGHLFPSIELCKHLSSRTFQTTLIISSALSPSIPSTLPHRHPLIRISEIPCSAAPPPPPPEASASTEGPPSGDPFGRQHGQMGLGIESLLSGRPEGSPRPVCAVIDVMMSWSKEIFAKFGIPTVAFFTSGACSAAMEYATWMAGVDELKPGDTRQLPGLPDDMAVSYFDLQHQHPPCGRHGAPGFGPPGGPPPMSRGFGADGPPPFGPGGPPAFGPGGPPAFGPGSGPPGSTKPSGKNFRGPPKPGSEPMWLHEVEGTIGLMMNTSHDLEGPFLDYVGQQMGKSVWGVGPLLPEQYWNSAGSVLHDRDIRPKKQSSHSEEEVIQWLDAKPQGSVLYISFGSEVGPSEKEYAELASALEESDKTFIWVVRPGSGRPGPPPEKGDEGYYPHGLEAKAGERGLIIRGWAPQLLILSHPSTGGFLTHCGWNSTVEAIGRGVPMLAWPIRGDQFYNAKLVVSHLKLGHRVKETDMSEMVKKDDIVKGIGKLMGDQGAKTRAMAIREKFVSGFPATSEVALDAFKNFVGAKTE

Km (FmUGT1)	Molecule	Km [1]	kcat [1]
236 µM	OC[C@H]1O[C@@H](Oc2c(O)cc(O)cc2/C=C/c2ccc(O)cc2)[C@H](O)[C@@H](O)[C@@H]1O [compound 1, THSG]		
	FmUGT2 (Pleuropterus multiflorus) (protein, full length, 482 residues (ORF 1449 bp); pET-32a (BamH I) in E. coli Transetta (DE3), Ni-NTA purified) MTISKTANLVLIPAPGMGHLAPAIELAKHLVARDPRLSITVLLIKGFVPEETVESYILSLKSNSSLLNQGIGFIDIPQIDLNSARPSFLTHMNAYQPKVKEAIEGLRSAGPLPVAGLLVDMFCTSTIDVATELGLPSYVFFTSGAGLLRLFFHLHGLGVDVAQEYDVVRSPDTLLEIPGFRNPVPVKVLPGRFLSKDGQSSTFLRLADKFRQAKGILVNTCMEIDRDLIQSMSQQDIEIPPIYPVGPILNLPTEDDHGHDDDESSGKDPITRWLDDQPPRSVVFLCFGSRGTFNDTQIKEIAVGLERSGQRFLWSLRQRPGETGVPLELDDPSKVLPEGFFERTAEKGRVIGWAPQARVLAHKAVGAFVSHCGWNSTLESFWYGVPIAAWPIYAEQQLNAFVLVKELGLATEIRIDYCQDFGINMVVKAEEVEDGINKAMKETEVKKKVKEMCDKARKALEEGGSSYESIGRFIEVVFKNLP	185 µM	0.1413 s⁻¹
